{
  "source": "the domain aggregation screens of Martell et al. (2025)",
  "data": [
    {"assay": "soluble fraction after stress (log2 fold change); higher = more stays soluble; pooled small domains, quantitative proteomics", "settings": "stress: 75 degC", "values": [
      {"sequence": "HMTIDNPESQKIMDMVPFFFQSRNYDEAIEALTYVIEQEPQFSEAYNKRATFYFMMGDLENSMKDIEITLA", "soluble fraction (log2)": -0.29},
      {"sequence": "HMTIGIGKSLDFNTSGEKAYRIYNFKGAYVGTFKASDMTSLKNEVQKSNVKAGAYMVRSLDGHVNRLIEIK", "soluble fraction (log2)": -1.49},
      {"sequence": "HMTIGKIVNIIEGSYANVRSAPDQNSEPIGRAYPGDAFLVDPLGSSGDWVKVTYEGQSGFIFQAYISV", "soluble fraction (log2)": -3.94},
      {"sequence": "HMTIGKRIKRRRIELKMSIDSLARTIGKDRSTVYRYESGAIDKVSSDVLAKLATALNTTPAYLIGL", "soluble fraction (log2)": -4.61},
      {"sequence": "HMTIKNHIDEILKKEPFILENIKNGLINISALARQIEPQLSRKVGKKLNVNAIIMTIKRMEIDQLNK", "soluble fraction (log2)": -2.25},
      {"sequence": "HMTIPNGTVVNGTVLEAREAGAYLVRVAGQTLTAQANLPLLVGQHFRAVWDSSGDIPVLRLSDAEQALLGK", "soluble fraction (log2)": -0.362},
      {"sequence": "HMTIPRLPFAFAKRFGIVLDNRPSGFVAAHKEGLLPHVLLEVQRFLGDAYTLEVVSDDDFERILGQVYQT", "soluble fraction (log2)": -3.72},
      {"sequence": "HMTIPSYAEAVRYVRRQPRINTSTLADGLGIRWSLALDYLERMARSGVVGAIEDDGWWPVAR", "soluble fraction (log2)": -0.977},
      {"sequence": "HMTIRIPEEEYLTRAKRAAQMTAERGLDALFLFGSEGDFQNVRYFTSVTPIWERLGVVITASGKAAMLTGP", "soluble fraction (log2)": -0.145},
      {"sequence": "HMTIRPEDVELVPAEDGYMQGDVVSNIFKGVHYELEVKANGYDWMVHTTKYVEVGSHVGIKVIPFNIQV", "soluble fraction (log2)": 0.322},
      {"sequence": "HMTISPYTKDDFLKGTKPFEDVYAHKADPFVHDRALEQMTIWAKSVGVNGFKKLYKAYIDSLRIKNKEI", "soluble fraction (log2)": -0.315},
      {"sequence": "HMTKAGVDAWTRGDYAAAVKEWQAQAAKGDADAIFNLGQAFKLGKGVPQDLIKAEQLFGQAAA", "soluble fraction (log2)": 0.246},
      {"sequence": "HMTKDEIIIQSIIDAAKKLMQQYGLNKTTMEDIAKEAGKGKSTLYHYFKSKEEIFDQVINQEID", "soluble fraction (log2)": 0.0589},
      {"sequence": "HMTKEEFLDEIKKELGFMPYEEVIKAEKYFESYFNGSEADEKVIERFGSPKYAAQNYYRTHVAN", "soluble fraction (log2)": 0.029},
      {"sequence": "HMTKEEFLYELKKELSALDSAEATAYNLRYYSDYIDAEIAKGRSEQEVLDELGNPRWLVNSIKESG", "soluble fraction (log2)": -0.139},
      {"sequence": "HMTKGDRIKARREELGLTQTDLAEAISSTKQNIYKYENNIISNIPSDKVEAIAEVLKISPAYLMGWGDE", "soluble fraction (log2)": -0.0377},
      {"sequence": "HMTKGFSIQDISLSKSTMTFLQQNKITDLASLLSMSKSQIEGMKGFKPKMIQEIEKNLDKVGLVLAQD", "soluble fraction (log2)": -0.243},
      {"sequence": "HMTKGVKVEIGTEEASVDLYVVMEYGTPIQKAAYDAQESVRKAIETMTNLHVVRVDVHVQGVSF", "soluble fraction (log2)": -0.466},
      {"sequence": "HMTKGVWHTVKKGENLYRISLYYEVPQQEIKKANKIETENIVVGQKLFIPNTTKKSPIFALTP", "soluble fraction (log2)": -1.72},
      {"sequence": "HMTKIDYSINQIYSLRNIENITIVLKDKRSFTGKILKIYWQNGSKIILFTTETRNYKFKEYEISEIYKS", "soluble fraction (log2)": -1.02},
      {"sequence": "HMTKIEYTEQEFNDFIQAYKNNRKMFPEDYIVKTQVVFINKGFSKSQADMIIAQIETRLRLQGE", "soluble fraction (log2)": -2.91},
      {"sequence": "HMTKIKAIFFDIDGTIRSFKTKTIPENTANTLKKLKEQGIKIFIATGRAPFHTTFLNDLLDFKFDGYITIN", "soluble fraction (log2)": -0.659},
      {"sequence": "HMTKKSLFNQYLDDQKRLDIVTLQKAELVDLHKLADELNIDQYNQLKKNELIFKILQSNPSE", "soluble fraction (log2)": 0.162},
      {"sequence": "HMTKNEFLQGLKEELEGRVTHSAIQENIRYYDDYISQEVLKGSTEEEVTESLGGPRIIARTIVDAAYD", "soluble fraction (log2)": 0.0243},
      {"sequence": "HMTKPLHELLSQREFQVFTQLAAGRSVGEIAQQLSLSSNTVSTYRARILEKTGTRNDVELALYAIRR", "soluble fraction (log2)": -2.31},
      {"sequence": "HMTKPTLMEVEIKGAIQNPGVYTLKRNSSISKLIKMSGPLLENADTSSISFTHILQDKDVVVIPEIK", "soluble fraction (log2)": -0.194},
      {"sequence": "HMTKQEYLNQLKNELVKQGVADAEDVVTEYEQHFAFKLADGFGEEEIAKKLGDPAAIASQFVG", "soluble fraction (log2)": 0.669},
      {"sequence": "HMTKQMELLAQGAAKLSVDLNQRQLDQLQTYYRELVDWNQRMNLTAITQYEEVQVKHFLDSL", "soluble fraction (log2)": -0.477},
      {"sequence": "HMTKRKNTEFRQQQIIEAAAKLIFKYGSEHLTVKRIAAQVGISEAAIYRHFTSKKSILSFLLSHIEE", "soluble fraction (log2)": -0.362},
      {"sequence": "HMTKRTVKSVARKIADFNRERHRMPTYEEMLTLLAVRSKSVVHFWMNKLLQEGILEKDESGHLTFV", "soluble fraction (log2)": -0.179},
      {"sequence": "HMTKSSAYLSAEKLINKKQYSDAIVKLNDALVTDSKNADIYNYLGFSHRKLGKMEDAAFFYNKALE", "soluble fraction (log2)": 0.0234},
      {"sequence": "HMTLDDSFYQKADEIIANHTKEERSLIPIIQDIQAEYRYLPPELLTYVAKEIGITDARAYSVASFYENFS", "soluble fraction (log2)": -0.521},
      {"sequence": "HMTLDEDYFYYTLKAKEGYYRLYKKLGVDRKIIDSLNPNLKEMGLQVGMVIRVPKSQTSDLSVKNSLLVE", "soluble fraction (log2)": -1.64},
      {"sequence": "HMTLHDLFPQAVEFVSEKEMISTAELQRKLMISYNSAAKIIDQLLHVDFIQKSESAGKYSVLIK", "soluble fraction (log2)": -2.66},
      {"sequence": "HMTLNTQLFTWKKGVRVGEDDQGNIYYRTKDDKRRWVIFTGETEATKVSPDWHGWLHRTWATPPNK", "soluble fraction (log2)": -2.27},
      {"sequence": "HMTLPGQDFIRASQLKELIAKYDKQYYEEGVSDISDAEYDRLYEEYLEFENKYPELKDMADAPTKRV", "soluble fraction (log2)": 0.659},
      {"sequence": "HMTLREQISALIKQGKLTQAKLARETGVNGGALSAWINGKYTGNVETVEEPIKHWMALNERK", "soluble fraction (log2)": -0.342},
      {"sequence": "HMTLSVRQRMSQIINKIDVSNFTDFTKLFDINEGRLGVAVTFLAILELLKDTMIDVIQNEEFAPLHIKVSS", "soluble fraction (log2)": 0.128},
      {"sequence": "HMTMIIQLDKNITQEQRQFLVEELNRLSISPNFVSTQFTNYIVGIPKKEFDIRLIGNLPGIADIHFV", "soluble fraction (log2)": -1.58},
      {"sequence": "HMTMKVTADILNMRSEASTNSDIVTKLKKDDELKVIEETKDDDGVTWVKVDFNGQVGFVSKEFLG", "soluble fraction (log2)": 0.237},
      {"sequence": "HMTMLLEYNVSRSSKWMNKTIMDAEIPDDILIVMIKRNGQVIVPKGSTEILENDILVLSGNNLNEVALG", "soluble fraction (log2)": -3.02},
      {"sequence": "HMTMNYYDILSIKRDATLEEIQKAYKEKSFQFHPDFNKGISDDSMFRIIKEAYETLSDTEKRNQYDASLNK", "soluble fraction (log2)": 0.45},
      {"sequence": "HMTMQTAEQESRLEQKLIDLSVGIDRFEGYSRPHGQLIASIADRIGTRLGMAAHDRFYMQQAAL", "soluble fraction (log2)": 0.203},
      {"sequence": "HMTNADRFIGEEAMVIKKIDDINNDGQVKIAGQVWSAVSEDKSPLEEGTIVKVIAIRGVKLVVEPVS", "soluble fraction (log2)": -0.369},
      {"sequence": "HMTNALDMMKTMDSDAYTKYQKISKESSNEDRQLNELKYITNWYAGAVKKNPSMVDDYEKQKEADS", "soluble fraction (log2)": 0.302},
      {"sequence": "HMTNELTEIFNSIRLTKKQKELLQSNYLSLRETYFLQGKTAFNLKFKNIAGLGKSTKKVLLEFFEESIE", "soluble fraction (log2)": -3.15},
      {"sequence": "HMTNIDIEKSIKNTITANYDDVLNYHNEDDNKTFASGDSRYSFDYDEKTKTLIVFTNSKVDAVFVDGIKKK", "soluble fraction (log2)": 0.308},
      {"sequence": "HMTNISDYILEEYYKNVYPNDLNTKRIVIPNKYEEYAGKYTYITIARMVTYEHDAKKALKVLHQQAT", "soluble fraction (log2)": -0.307},
      {"sequence": "HMTNKYSSLVIGTVKTIMEEDQYKNLMGPPLKKEIIKQVDKFTNALPIEFDQNDKDFYVKKILINL", "soluble fraction (log2)": -0.377},
      {"sequence": "HMTNLKALRESKGVSQQTVADYLGITRQAYGNYETGKRQADYAALLRLAAFFGVSVDALLQP", "soluble fraction (log2)": -1.18},
      {"sequence": "HMTNNDIIRRVRYLFNFSDKQVIELFKLANETVSIEHVSGWLKKEEDPTLIEISDRDLAVFLNGLII", "soluble fraction (log2)": 0.557},
      {"sequence": "HMTNQEFNEVFKLLLAAYPNTKDKESVATIYFLTIANELTKKEFAEAVVKILKTRKSGFIPQPAEILEVAK", "soluble fraction (log2)": -2.54},
      {"sequence": "HMTNSAGIERFLASGAIDGVGPAMARRIVEHFGTEALRIIESVPHRLREISGIGPKTAEKIASSYMRQ", "soluble fraction (log2)": -1.15},
      {"sequence": "HMTNTDALINRAAKVVEEINPDKNTGRVSIDGDLWRAKSSSGELIEQNKQVIVISIESTIVTVKI", "soluble fraction (log2)": -0.228},
      {"sequence": "HMTNTWNNIVERNDLFFKKFTNTPFNGKIETYWPNGNLKETGIITDGKKDNLWEYYYENGNPKEVEF", "soluble fraction (log2)": -0.876}
    ]}
  ]
}
